Assay results taken from patent publication US20030032777A1, “Precursor polypeptide of phytosulfokine derived from Arabidopsis thaliana and a gene encoding said polypeptide” (priority 2001, published 2003).
Square brackets hold non-standard residues; d marks the D form. Ends that are not written are not given here. sY = N[C@@H](Cc1ccc(OS(=O)(=O)O)cc1)C(=O)O

B1: AtPSKL gene: gene of 479 bases (SEQ ID NO: 4) encoding 79-amino-acid phytosulfokine precursor of Arabidopsis thaliana (nucleic acid, listed as Arabidopsis thaliana)
DNA: CTTCTCAGGCTCCCATTATCTTTCTCTATTTTGCAAATCAGTATGGGTAAGTTCACAACCATTTTCATCATGGCTCTCCTTCTTTGCTCTACGCTAACCTACGCAGCAAGGCTGACTCCGACGACAACCACCGCTTTGTCCAGAGAAAACTCCGTCAAGGAAATTGAAGGAGACAAGGTTGAAGAAGAAAGCTGCAACGGAATTGGAGAAGAAGAATGTTTGATAAGACGAAGCCTTCTTCTTCACACCGATTACATTTATACTCAGAATCACAAGCCCTAAGTTTCTGTATTAGAGCAATTAATTAACTAATTACATTATCAAACCTATCACTGTAGTACTTTCTGTTTTCTGTTCGTCTTTTTTGTTTTGTTTTGTTTATGTTATCGCTATTTTAAAGTTTCATTGTTATTTTGAAAGTTCTTACACCATCATTATTGATAGTCTCTTAAAACAAAAAAAAAAAAAAAAAAAAAAAA
B2: AtPSK2 gene: gene of 545 bases (SEQ ID NO: 2) encoding 87-amino-acid phytosulfokine precursor of Arabidopsis thaliana (nucleic acid, listed as Arabidopsis thaliana)
DNA: TTTAAGCATCTCTCTCCCTTCAAAGAAAATATCACAAAAATGGCAAACGTCTCCGCTTTGCTCACCATAGCTCTTCTCCTTTGCTCCACGCTAATGTGCACTGCCCGCCCCGAACCGGCCATCTCCATCTCTATCACGACTGCTGCCGATCCATGTAACATGGAGAAGAAGATAGAAGGAAAATTAGATGACATGCATATGGTAGACGAAAACTGTGGTGCAGACGACGAAGATTGCTTAATGAGGAGGACTTTGGTCGCTCATACTGATTACATCTATACCCAGAAGAAGAAGCATCCTTGATTTTCACTTACTCATTTCTAACAAACTTTTGCTCAAGATTATGTAATTTATGTCATCCTTAATTAGTATTTGTCACATACAAGATCAAGATAGTTATGATTGTGATTATTTATATGTATTTTGGATGATATATTGTAGAACTAGAAGTTTGACAATAAAAAGTTTATAGTGTCGTTGTATGTTTAAGAAGTTTGACAATAAAAACTTTATAGTGTTGTTGCAAAAAAAAAAAAAAAAAAAAA

Tests used:
plant cell = details: relative to PSK-α; cited from earlier work
[1] = system: Arabidopsis cultured cells; assay: Rate of cell division / proliferation of transgenic cells; assay type: cell-based, Arabidopsis thaliana; details: for Cell proliferation of transformed Arabidopsis cultured cells: cells transformed by the gene
Protocol: Constructs were transformed into Agrobacterium tumefaciens (C58C1Rif^R) by triparental mating (Van Haute et al., 1983), and Agrobacterium-mediated transformation of roots of Arabidopsis Columbia ecotype was essentially as described (Valvekens et al., 1988). Transgenic microcalli were generated by incubating co-cultivated root explants for 3 weeks on the callus induction medium (B5+0.5 mg/l 2,4-D and 0.05 mg/l KIN) supplemented with 50 mg/l Kan sulphate (Life Technologies, Grand Island, N.Y., USA) and 750 mg/l vancomycin hydrochloride (Wako, Osaka, Japan). The individual regenerating microcalli were transferred to fresh medium to ensure that all transformants were due to independent T-DNA insertions. To detect the introduced genes, genomic DNA was isolated from transgenic calli, digested with BamHI, and allowed to hybridize with the labeled cDNA as described above. Arabidopsis cells transformed with the binary vector alone served as controls.
To examine whether AtPSK2 and AtPSKL indeed code for precursors to PSK, we transformed 28-day-old Arabidopsis roots with artificially mutated AtPSK2 or AtPSKL cDNAs in the sense orientation designed to produce [Ser^4]PSK-α instead of PSK-α, and the wild-type cDNAs in sense and antisense orientations, respectively. The chimeric genes were placed under the control of the constitutive cauliflower mosaic virus (CaMV) 35S promoter incorporated within the binary vector pMAT037 (Matsuoka and Nakamura, 1991). Arabidopsis cells transformed with the binary vector alone served as controls. B5 medium (Gamborg et al., 1968) supplemented with 0.5 mg/L 2,4-dichlorophenoxyacetic acid (2,4-D) and 0.05 mg/L kinetin (KIN) was used to induce calli.
The rate of cell division was investigated on the transgenic cells. The results on AtPSK2 and AtPSKL are shown in FIGS. 12 and 13, respectively. In FIGS. 12 and 13, A indicates the result of the sense transgenic cells, B indicates the result of the control cells, C indicates the result of the antisense transgenic cells, respectively. […]

Arabidopsis cells = assay: LC/MS quantification of PSK analogs secreted into conditioned medium (CM) by transgenic cells; assay type: cell-based, Arabidopsis thaliana; details: cells transformed by the gene
Description: A 22-mer primer (5′-[…]-3′) based on the nucleic acid sequence of the AtPSK2 cDNA and A 24-mer primer (5′-[…]-3′) based on the nucleic acid sequence of the AtPSKL cDNA were synthesized and used to obtain the mutated cDNAs that were designed to produce unnatural [Ser^4]PSK-α instead of PSK-α. Mutations were introduced with a LA PCR In Vitro Mutagenesis Kit (Takara) and confirmed by sequencing. The pMAT037 (Matsuoka and Nakamura, 1991) was employed as a binary vector for Arabidopsis root transformation. Original or mutated cDNAs were digested with SacI and HindIII or KpnI and inserted in-frame into the same sites of the vectors to construct chimeric genes harboring the cDNA in sense or antisense orientations, respectively. Expression of the chimeric genes was driven by the promoter of the CaMV 35S transcript.
Constructs were transformed into Agrobacterium tumefaciens (C58C1Rif^R) by triparental mating (Van Haute et al., 1983), and Agrobacterium-mediated transformation of roots of Arabidopsis Columbia ecotype was essentially as described (Valvekens et al., 1988). […]
Mass spectra were obtained using a Fisons VG platform quadruple mass spectrometer with electrospray ionization interfaced to a Jasco PU 980 HPLC system. […] The semiquantitative amounts of the PSK-α, PSK-β, [Ser^4]PSK-α and [Ser^4]PSK-β in CM were measured based on the peak heights without an internal standard. […]

| Molecule | Cell proliferation activity compared to that of PSK-α (plant cell) | Effect of supplementation in the medium on decreased mitogenic activity of antisense transgenic cells ([1]; PSK-α added to medium of antisense transgenic cells) | Cell proliferation of transformed Arabidopsis cultured cells [1] | Secretion of PSK by transformed Arabidopsis cultured cells (Arabidopsis cells) |
| --- | --- | --- | --- | --- |
| [sY]I[sY]T [PSK-β] | less than one-tenth | – | – | – |
| [sY]I[sY]TQ [PSK-α, reference compound] | – | alternated in part | – | – |
| B1 | – | – | cell proliferation was enhanced | could secret the PSK |
| B2 | – | – | cell proliferation was enhanced | could secret the PSK |
